Source: patent publication US20180155451A1 (published 2018)

B1: GpH7-B3 variant K334_10E/GpL16-k0 (Ho Ab) (antibody, human IgG1, kappa)
heavy: not shown
light: DIVMTQSPLSLPVTPGEPASISCQASESLVHSNRNTYLHWYLQKPGQSPQLLIYKVSNRFSGVPDRFSGSGSGTDFTLKISRVEAEDVGVYYCSQNTHVPPTFGQGTKVEIERTVAAPSVFIFPPSDEQLKSGTASVVCLLNNFYPREAKVQWKVDNALQSGNSQESVTEQDSKDSTYSLSSTLTLSKADYEKHKVYACEVTHQGLSSPVTKSFNRGEC
notes: Ho Ab: alteration in both H chains
B2: GpH7-B3 variant S324_08L/GpL16-k0 (Ho Ab) (antibody, human IgG1, kappa)
heavy: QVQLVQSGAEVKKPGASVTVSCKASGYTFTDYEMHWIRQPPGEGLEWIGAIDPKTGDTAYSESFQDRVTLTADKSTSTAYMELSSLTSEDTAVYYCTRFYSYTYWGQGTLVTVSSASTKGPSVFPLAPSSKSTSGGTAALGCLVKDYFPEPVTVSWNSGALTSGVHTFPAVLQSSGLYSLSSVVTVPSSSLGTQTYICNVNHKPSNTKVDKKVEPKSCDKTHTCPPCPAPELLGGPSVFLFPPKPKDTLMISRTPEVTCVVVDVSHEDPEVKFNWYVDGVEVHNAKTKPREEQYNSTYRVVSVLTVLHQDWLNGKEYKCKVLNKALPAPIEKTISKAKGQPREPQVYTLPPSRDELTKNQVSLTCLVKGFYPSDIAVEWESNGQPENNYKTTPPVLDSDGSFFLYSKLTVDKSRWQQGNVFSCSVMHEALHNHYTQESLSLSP
light: B1 light
notes: as for B1
B3: GpH7-B3 variant Q295_04F/GpL16-k0 (Ho Ab) (antibody, human IgG1, kappa)
heavy: not shown
light: B1 light
notes: as for B1
B4: GpH7-B3 variant P271_06M/GpL16-k0 (Ho Ab) (antibody, human IgG1, kappa)
heavy: not shown
light: B1 light
notes: as for B1
B5: GpH7-B3 variant Q295_13S/GpL16-k0 (Ho Ab) (antibody, human IgG1, kappa)
heavy: not shown
light: B1 light
notes: as for B1
B6: GpH7-B3 variant S298_19Q/GpL16-k0 (Ho Ab) (antibody, human IgG1, kappa)
heavy: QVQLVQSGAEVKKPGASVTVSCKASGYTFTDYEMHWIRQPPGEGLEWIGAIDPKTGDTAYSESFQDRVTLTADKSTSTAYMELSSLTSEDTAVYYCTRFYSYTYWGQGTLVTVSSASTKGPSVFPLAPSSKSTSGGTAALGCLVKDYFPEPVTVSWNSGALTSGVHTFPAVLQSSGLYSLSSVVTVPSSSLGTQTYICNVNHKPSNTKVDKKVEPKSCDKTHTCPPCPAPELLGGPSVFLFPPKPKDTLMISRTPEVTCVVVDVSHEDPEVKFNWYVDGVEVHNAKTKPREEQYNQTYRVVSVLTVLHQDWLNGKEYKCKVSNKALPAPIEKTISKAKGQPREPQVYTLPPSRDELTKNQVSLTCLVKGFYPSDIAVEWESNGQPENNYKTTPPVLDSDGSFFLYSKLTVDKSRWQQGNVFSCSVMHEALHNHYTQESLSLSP
light: B1 light
notes: as for B1
B7: GpH7-B3 variant S267_09D/GpL16-k0 (Ho Ab) (antibody, human IgG1, kappa)
heavy: not shown
light: B1 light
notes: as for B1
B8: GpH7-B3 variant S324_19Q/GpL16-k0 (Ho Ab) (antibody, human IgG1, kappa)
heavy: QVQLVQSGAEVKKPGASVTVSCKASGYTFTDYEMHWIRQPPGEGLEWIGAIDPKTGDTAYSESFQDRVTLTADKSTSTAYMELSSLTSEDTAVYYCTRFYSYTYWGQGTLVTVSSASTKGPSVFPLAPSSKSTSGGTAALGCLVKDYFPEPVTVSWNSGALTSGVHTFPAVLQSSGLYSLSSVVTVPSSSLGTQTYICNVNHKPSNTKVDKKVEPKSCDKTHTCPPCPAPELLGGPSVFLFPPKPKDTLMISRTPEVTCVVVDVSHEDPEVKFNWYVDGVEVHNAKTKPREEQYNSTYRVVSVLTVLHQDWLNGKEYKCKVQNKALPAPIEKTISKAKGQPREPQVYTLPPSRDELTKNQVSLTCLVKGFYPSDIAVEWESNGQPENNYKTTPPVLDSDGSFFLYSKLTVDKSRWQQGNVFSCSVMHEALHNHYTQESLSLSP
light: B1 light
notes: as for B1
B9: GpH7-B3 variant P271_20W/GpL16-k0 (Ho Ab) (antibody, human IgG1, kappa)
heavy: not shown
light: B1 light
notes: as for B1
B10: GpH7-B3 variant Q295_02A/GpL16-k0 (Ho Ab) (antibody, human IgG1, kappa)
heavy: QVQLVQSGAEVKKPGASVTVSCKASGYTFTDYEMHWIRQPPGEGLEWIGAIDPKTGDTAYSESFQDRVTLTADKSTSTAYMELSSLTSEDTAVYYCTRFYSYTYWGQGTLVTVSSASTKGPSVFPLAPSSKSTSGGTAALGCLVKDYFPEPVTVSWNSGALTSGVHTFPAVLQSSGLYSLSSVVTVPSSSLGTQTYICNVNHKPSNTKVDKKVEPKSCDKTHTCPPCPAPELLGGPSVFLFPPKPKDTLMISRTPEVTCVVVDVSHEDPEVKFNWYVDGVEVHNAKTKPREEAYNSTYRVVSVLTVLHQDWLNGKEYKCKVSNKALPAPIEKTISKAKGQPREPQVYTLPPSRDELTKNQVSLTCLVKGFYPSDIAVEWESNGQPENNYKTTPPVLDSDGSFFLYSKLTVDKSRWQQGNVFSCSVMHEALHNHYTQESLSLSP
light: B1 light
notes: as for B1
B11: GpH7-B3 variant S298_03V/GpL16-k0 (Ho Ab) (antibody, human IgG1, kappa)
heavy: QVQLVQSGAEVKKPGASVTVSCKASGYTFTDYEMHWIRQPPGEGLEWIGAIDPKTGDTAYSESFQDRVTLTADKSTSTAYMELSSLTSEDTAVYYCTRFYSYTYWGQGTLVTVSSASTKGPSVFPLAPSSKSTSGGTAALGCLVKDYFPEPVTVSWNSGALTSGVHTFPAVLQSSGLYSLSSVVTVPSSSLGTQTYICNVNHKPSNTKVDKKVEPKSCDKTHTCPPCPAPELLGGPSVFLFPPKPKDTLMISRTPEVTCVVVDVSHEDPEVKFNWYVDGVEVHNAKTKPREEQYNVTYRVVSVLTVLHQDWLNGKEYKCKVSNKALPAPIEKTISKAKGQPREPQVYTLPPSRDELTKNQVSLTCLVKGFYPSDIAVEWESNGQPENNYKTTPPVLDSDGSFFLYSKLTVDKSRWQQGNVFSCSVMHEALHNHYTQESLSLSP
light: B1 light
notes: as for B1
B12: GpH7-B3 variant S324_03V/GpL16-k0 (Ho Ab) (antibody, human IgG1, kappa)
heavy: not shown
light: B1 light
notes: as for B1
B13: GpH7-B3 variant S324_02A/GpL16-k0 (Ho Ab) (antibody, human IgG1, kappa)
heavy: not shown
light: B1 light
notes: as for B1
B14: GpH7-B3 variant P271_12R/GpL16-k0 (Ho Ab) (antibody, human IgG1, kappa)
heavy: not shown
light: B1 light
notes: as for B1
B15: GpH7-B3 variant S298_08L/GpL16-k0 (Ho Ab) (antibody, human IgG1, kappa)
heavy: not shown
light: B1 light
notes: as for B1
B16: GpH7-B3 variant S298_07I/GpL16-k0 (Ho Ab) (antibody, human IgG1, kappa)
heavy: not shown
light: B1 light
notes: as for B1
B17: GpH7-B3 variant Q295_14T/GpL16-k0 (Ho Ab) (antibody, human IgG1, kappa)
heavy: not shown
light: B1 light
notes: as for B1
B18: GpH7-B3 variant P271_13S/GpL16-k0 (Ho Ab) (antibody, human IgG1, kappa)
heavy: not shown
light: B1 light
notes: as for B1
B19: GpH7-B3 variant P271_11K/GpL16-k0 (Ho Ab) (antibody, human IgG1, kappa)
heavy: not shown
light: B1 light
notes: as for B1
B20: GpH7-B3 variant Q295_03V/GpL16-k0 (Ho Ab) (antibody, human IgG1, kappa)
heavy: not shown
light: B1 light
notes: as for B1
B21: GpH7-B3 variant S298_10E/GpL16-k0 (Ho Ab) (antibody, human IgG1, kappa)
heavy: not shown
light: B1 light
notes: as for B1
B22: GpH7-B3 variant Q295_18N/GpL16-k0 (Ho Ab) (antibody, human IgG1, kappa)
heavy: not shown
light: B1 light
notes: as for B1
B23: GpH7-B3 variant S267_01G/GpL16-k0 (Ho Ab) (antibody, human IgG1, kappa)
heavy: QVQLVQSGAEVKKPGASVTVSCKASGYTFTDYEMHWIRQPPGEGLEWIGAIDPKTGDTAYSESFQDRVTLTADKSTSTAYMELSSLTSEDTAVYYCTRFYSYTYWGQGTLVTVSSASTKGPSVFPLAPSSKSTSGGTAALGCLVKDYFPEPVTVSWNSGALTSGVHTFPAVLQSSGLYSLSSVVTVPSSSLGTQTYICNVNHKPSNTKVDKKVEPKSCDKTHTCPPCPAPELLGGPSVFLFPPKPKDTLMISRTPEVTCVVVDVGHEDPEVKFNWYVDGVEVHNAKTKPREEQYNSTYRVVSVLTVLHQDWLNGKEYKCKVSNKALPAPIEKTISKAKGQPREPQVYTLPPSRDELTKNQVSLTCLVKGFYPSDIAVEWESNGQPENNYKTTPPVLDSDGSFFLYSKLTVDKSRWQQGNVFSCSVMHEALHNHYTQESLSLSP
light: B1 light
notes: as for B1
B24: GpH7-B3 variant S324_14T/GpL16-k0 (Ho Ab) (antibody, human IgG1, kappa)
heavy: not shown
light: B1 light
notes: as for B1
B25: GpH7-B3 variant S337_01G/GpL16-k0 (Ho Ab) (antibody, human IgG1, kappa)
heavy: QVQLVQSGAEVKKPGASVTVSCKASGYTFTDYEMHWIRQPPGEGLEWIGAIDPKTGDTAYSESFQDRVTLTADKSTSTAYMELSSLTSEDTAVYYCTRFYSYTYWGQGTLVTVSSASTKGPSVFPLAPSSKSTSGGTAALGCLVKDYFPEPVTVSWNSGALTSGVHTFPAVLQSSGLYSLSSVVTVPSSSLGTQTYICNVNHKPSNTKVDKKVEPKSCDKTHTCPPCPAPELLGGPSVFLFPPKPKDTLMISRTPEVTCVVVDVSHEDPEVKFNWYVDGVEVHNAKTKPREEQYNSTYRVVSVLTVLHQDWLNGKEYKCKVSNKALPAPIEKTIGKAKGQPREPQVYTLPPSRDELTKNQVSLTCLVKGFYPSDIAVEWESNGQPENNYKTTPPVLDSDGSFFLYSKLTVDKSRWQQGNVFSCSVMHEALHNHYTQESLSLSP
light: B1 light
notes: as for B1
B26: GpH7-B3 variant S337_03V/GpL16-k0 (Ho Ab) (antibody, human IgG1, kappa)
heavy: not shown
light: B1 light
notes: as for B1
B27: GpH7-B3 variant S298_16H/GpL16-k0 (Ho Ab) (antibody, human IgG1, kappa)
heavy: not shown
light: B1 light
notes: as for B1
B28: GpH7-B3 variant S337_02A/GpL16-k0 (Ho Ab) (antibody, human IgG1, kappa)
heavy: not shown
light: B1 light
notes: as for B1
B29: GpH7-B3 variant P271_07I/GpL16-k0 (Ho Ab) (antibody, human IgG1, kappa)
heavy: not shown
light: B1 light
notes: as for B1
B30: GpH7-B3 variant S298_18N/GpL16-k0 (Ho Ab) (antibody, human IgG1, kappa)
heavy: not shown
light: B1 light
notes: as for B1
B31: GpH7-B3 variant P271_03V/GpL16-k0 (Ho Ab) (antibody, human IgG1, kappa)
heavy: not shown
light: B1 light
notes: as for B1
B32: GpH7-B3 variant S298_15Y/GpL16-k0 (Ho Ab) (antibody, human IgG1, kappa)
heavy: not shown
light: B1 light
notes: as for B1
B33: GpH7-B3 variant S324_20W/GpL16-k0 (Ho Ab) (antibody, human IgG1, kappa)
heavy: not shown
light: B1 light
notes: as for B1
B34: GpH7-B3 variant S239_09D/GpL16-k0 (Ho Ab) (antibody, human IgG1, kappa)
heavy: not shown
light: B1 light
notes: Ho Ab: alteration in both H chains; also called GpH7-B3-06-09D/GpL16-k0
B35: GpH7-B3 variant S298_14T/GpL16-k0 (Ho Ab) (antibody, human IgG1, kappa)
heavy: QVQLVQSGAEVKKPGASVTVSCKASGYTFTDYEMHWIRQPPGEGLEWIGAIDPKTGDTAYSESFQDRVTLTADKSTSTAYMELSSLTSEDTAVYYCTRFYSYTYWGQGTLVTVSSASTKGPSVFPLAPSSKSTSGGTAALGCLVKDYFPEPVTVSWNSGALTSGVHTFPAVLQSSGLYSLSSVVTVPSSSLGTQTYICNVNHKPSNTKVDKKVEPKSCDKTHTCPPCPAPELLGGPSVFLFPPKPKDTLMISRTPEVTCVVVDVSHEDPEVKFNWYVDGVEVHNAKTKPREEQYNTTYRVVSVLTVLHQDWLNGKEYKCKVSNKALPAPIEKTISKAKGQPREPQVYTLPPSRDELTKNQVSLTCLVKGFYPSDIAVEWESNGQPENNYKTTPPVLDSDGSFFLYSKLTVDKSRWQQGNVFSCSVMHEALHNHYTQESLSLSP
light: B1 light
notes: as for B1
B36: GpH7-B3 variant P271_04F/GpL16-k0 (Ho Ab) (antibody, human IgG1, kappa)
heavy: not shown
light: B1 light
notes: as for B1
B37: GpH7-B3 variant Q295_05P/GpL16-k0 (Ho Ab) (antibody, human IgG1, kappa)
heavy: not shown
light: B1 light
notes: as for B1
B38: GpH7-B3 variant S267_02A/GpL16-k0 (Ho Ab) (antibody, human IgG1, kappa)
heavy: not shown
light: B1 light
notes: as for B1
B39: GpH7-B3 variant S267_03V/GpL16-k0 (Ho Ab) (antibody, human IgG1, kappa)
heavy: not shown
light: B1 light
notes: as for B1
B40: GpH7-B3 variant S239_01G/GpL16-k0 (Ho Ab) (antibody, human IgG1, kappa)
heavy: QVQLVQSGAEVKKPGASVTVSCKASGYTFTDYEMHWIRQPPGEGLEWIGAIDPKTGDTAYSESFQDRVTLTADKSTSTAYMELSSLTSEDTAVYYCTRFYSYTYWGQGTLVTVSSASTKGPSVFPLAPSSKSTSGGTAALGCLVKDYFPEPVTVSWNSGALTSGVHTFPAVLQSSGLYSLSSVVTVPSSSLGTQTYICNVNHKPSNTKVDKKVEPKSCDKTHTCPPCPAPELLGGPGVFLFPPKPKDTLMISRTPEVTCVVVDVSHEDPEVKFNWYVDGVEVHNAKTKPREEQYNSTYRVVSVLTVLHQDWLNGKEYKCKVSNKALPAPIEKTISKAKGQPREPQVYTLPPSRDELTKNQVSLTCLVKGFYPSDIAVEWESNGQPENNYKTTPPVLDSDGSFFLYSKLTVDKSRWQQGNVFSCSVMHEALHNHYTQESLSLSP
light: B1 light
notes: as for B1
B41: GpH7-B3 variant Q295_07I/GpL16-k0 (Ho Ab) (antibody, human IgG1, kappa)
heavy: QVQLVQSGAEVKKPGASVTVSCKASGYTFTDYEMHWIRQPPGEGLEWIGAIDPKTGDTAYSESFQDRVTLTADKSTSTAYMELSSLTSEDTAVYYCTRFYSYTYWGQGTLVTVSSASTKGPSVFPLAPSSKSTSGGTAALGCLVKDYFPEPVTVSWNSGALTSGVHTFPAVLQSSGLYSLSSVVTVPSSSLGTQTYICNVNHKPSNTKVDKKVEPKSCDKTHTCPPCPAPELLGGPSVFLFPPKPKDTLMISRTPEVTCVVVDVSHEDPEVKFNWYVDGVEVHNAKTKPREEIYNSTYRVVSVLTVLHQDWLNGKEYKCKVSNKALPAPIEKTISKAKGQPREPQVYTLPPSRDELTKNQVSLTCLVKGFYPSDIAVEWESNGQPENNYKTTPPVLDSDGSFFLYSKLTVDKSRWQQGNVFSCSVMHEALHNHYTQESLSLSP
light: B1 light
notes: as for B1
B42: GpH7-A5/GpH7-B3 variant P271_02A/GpL16-k0 (He Ab) (antibody, human IgG1, kappa)
heavy 1: not shown
heavy 2: not shown
light: B1 light
notes: He Ab: alteration only in the GpH7-B3 chain
B43: GpH7-A5/GpH7-B3 variant A330_08L/GpL16-k0 (He Ab) (antibody, human IgG1, kappa)
heavy 1: not shown
heavy 2: not shown
light: B1 light
notes: as for B42
B44: GpH7-A5/GpH7-B3 variant A327_09D/GpL16-k0 (He Ab) (antibody, human IgG1, kappa)
heavy 1: not shown
heavy 2: not shown
light: B1 light
notes: as for B42

Molecular target: T1, FcγRIa extracellular domain with C-terminal His tag (human, UniProt P12314 16-292)
T1 construct: extracellular domain; Expressed in FreeStyle293 cells; analyte in Biacore; also called FcgRI; FcgRIa
T1 sequence (P12314 16-292): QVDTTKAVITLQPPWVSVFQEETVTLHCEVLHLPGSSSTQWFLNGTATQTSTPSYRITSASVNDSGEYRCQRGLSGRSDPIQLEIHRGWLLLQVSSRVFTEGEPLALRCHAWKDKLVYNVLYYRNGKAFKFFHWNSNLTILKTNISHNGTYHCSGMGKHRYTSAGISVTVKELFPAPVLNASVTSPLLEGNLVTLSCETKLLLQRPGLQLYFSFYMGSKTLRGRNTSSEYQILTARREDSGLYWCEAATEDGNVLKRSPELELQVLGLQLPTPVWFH
Assay: SPR Biacore, antibody captured, FcγRIa analyte; vs GpH7-B3/GpL16-k0 = 100

| Ho/Con_1a | Binder |
| --- | --- |
| 107 relative (control = 100) | B1 |
| 103 relative (control = 100) | B2 |
| 100 relative (control = 100) | B3 |
| 102 relative (control = 100) | B4 |
| 101 relative (control = 100) | B5 |
| 105 relative (control = 100) | B6 |
| 106 relative (control = 100) | B7 |
| 111 relative (control = 100) | B8 |
| 102 relative (control = 100) | B9 |
| 104 relative (control = 100) | B10 |
| 106 relative (control = 100) | B11 |
| 103 relative (control = 100) | B12 |
| 103 relative (control = 100) | B13 |
| 101 relative (control = 100) | B14 |
| 104 relative (control = 100) | B15 |
| 103 relative (control = 100) | B16 |
| 102 relative (control = 100) | B17 |
| 101 relative (control = 100) | B18 |
| 101 relative (control = 100) | B19 |
| 102 relative (control = 100) | B20 |
| 106 relative (control = 100) | B21 |

| Ho/Con_1a | Binder |
| --- | --- |
| 101 relative (control = 100) | B22 |
| 102 relative (control = 100) | B23 |
| 112 relative (control = 100) | B24 |
| 102 relative (control = 100) | B25 |
| 105 relative (control = 100) | B26 |
| 107 relative (control = 100) | B27 |
| 103 relative (control = 100) | B28 |
| 102 relative (control = 100) | B29 |
| 104 relative (control = 100) | B30 |
| 102 relative (control = 100) | B31 |
| 103 relative (control = 100) | B32 |
| 112 relative (control = 100) | B33 |
| 101 relative (control = 100) | B34 |
| 106 relative (control = 100) | B35 |
| 100 relative (control = 100) | B36 |
| 101 relative (control = 100) | B37 |
| 108 relative (control = 100) | B38 |
| 102 relative (control = 100) | B39 |
| 101 relative (control = 100) | B40 |
| 101 relative (control = 100) | B41 |

Molecular target: T1, FcγRIa extracellular domain with …
Assay: SPR Biacore, antibody captured, FcγRIa analyte; vs GpH7-A5/GpH7-B3/GpL16-k0 = 100

| He/Con_1a | Binder |
| --- | --- |
| 104 relative (control = 100) | B42 |
| 107 relative (control = 100) | B43 |
| 103 relative (control = 100) | B44 |
